Assay results from the supplement of paper PMC10567573.

B1: ZNF511 (parent)
chain: HLYPADFRFDKPKKSRSPASAEAP

Variants of: B1
Assay: protein stability index of a GFP-peptide fusion (GPS, HEK-293T) (PSI 1-6); higher = more stable
Conditions: c terminus: a fixed tail appended
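Also: lentivirally expressed fusions sorted by FACS into six bins by GFP to DsRed ratio, PSI derived from sequencing read proportions per bin multiplied by bin number.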

Compared with HLYPADFRKDKPKKSRSPASAEAP [F9K], HLYPADFRDDKPKKSRSPASAEAP [F9D] is lower in protein stability index: 4.12 for the first, 2.1 for the second.

Going from HLYPADFRSDKPKKSRSPASAEAP [F9S] to HLYPADFRCDKPKKSRSPASAEAP [F9C], the protein stability index rises from 2.05 to 2.61.

Compared with HLYPADFRQDKPKKSRSPASAEAP [F9Q], HLYPADFRMDKPKKSRSPASAEAP [F9M] is higher in protein stability index: 2 for the first, 2.01 for the second.

Compared with HLYPADFREDKPKKSRSPASAEAP [F9E], HLYPADFRWDKPKKSRSPASAEAP [F9W] is higher in protein stability index: 1.88 for the first, 2.82 for the second.

First: HLYPADFRRDKPKKSRSPASAEAP [F9R]
Second: HLYPADFRGDKPKKSRSPASAEAP [F9G]
The protein stability index of the first is higher: 3.71 for the first, 2.63 for the second.

Compared with HLYPADFRIDKPKKSRSPASAEAP [F9I], HLYPADFRPDKPKKSRSPASAEAP [F9P] is lower in protein stability index: 2.49 for the first, 2.35 for the second.

Going from HLYPADFRYDKPKKSRSPASAEAP [F9Y] to HLYPADFRTDKPKKSRSPASAEAP [F9T], the protein stability index falls from 3.29 to 2.85.

Going from HLYPADFRHDKPKKSRSPASAEAP [F9H] to HLYPADFRNDKPKKSRSPASAEAP [F9N], the protein stability index falls from 2.91 to 2.63.

Compared with HLYPADFRADKPKKSRSPASAEAP [F9A], HLYPADFRLDKPKKSRSPASAEAP [F9L] is higher in protein stability index: 1.29 for the first, 3.18 for the second.

First: HLYPADFPFDKPKKSRSPASAEAP [R8P]
Second: HLYPADFEFDKPKKSRSPASAEAP [R8E]
The protein stability index of the first is higher: 4.07 for the first, 3.93 for the second.

Going from HLYPADFWFDKPKKSRSPASAEAP [R8W] to HLYPADFLFDKPKKSRSPASAEAP [R8L], the protein stability index falls from 1.8 to 1.77.

Going from HLYPADFQFDKPKKSRSPASAEAP [R8Q] to HLYPADFTFDKPKKSRSPASAEAP [R8T], the protein stability index falls from 3.11 to 2.44.

Compared with HLYPADFVFDKPKKSRSPASAEAP [R8V], HLYPADFNFDKPKKSRSPASAEAP [R8N] is higher in protein stability index: 1.6 for the first, 3.1 for the second.

Compared with HLYPADFKFDKPKKSRSPASAEAP [R8K], HLYPADFMFDKPKKSRSPASAEAP [R8M] is lower in protein stability index: 3.3 for the first, 2.64 for the second.

First: HLYPADFYFDKPKKSRSPASAEAP [R8Y]
Second: HLYPADFHFDKPKKSRSPASAEAP [R8H]
The protein stability index of the first is lower: 2.37 for the first, 2.82 for the second.

Compared with HLYPADFSFDKPKKSRSPASAEAP [R8S], HLYPADFIFDKPKKSRSPASAEAP [R8I] is lower in protein stability index: 2.05 for the first, 2.03 for the second.

First: HLYPADFDFDKPKKSRSPASAEAP [R8D]
Second: HLYPADFAFDKPKKSRSPASAEAP [R8A]
The protein stability index of the first is higher: 4.13 for the first, 2.61 for the second.

Compared with HLYPADFFFDKPKKSRSPASAEAP [R8F], HLYPADFCFDKPKKSRSPASAEAP [R8C] is higher in protein stability index: 2.37 for the first, 2.8 for the second.

Compared with HLYPADFGFDKPKKSRSPASAEAP [R8G], HLYPADLRFDKPKKSRSPASAEAP [F7L] is higher in protein stability index: 2.53 for the first, 4.49 for the second.

Going from HLYPADMRFDKPKKSRSPASAEAP [F7M] to HLYPADSRFDKPKKSRSPASAEAP [F7S], the protein stability index falls from 4.38 to 4.25.

First: HLYPADYRFDKPKKSRSPASAEAP [F7Y]
Second: HLYPADHRFDKPKKSRSPASAEAP [F7H]
The protein stability index of the first is lower: 3.29 for the first, 3.98 for the second.

First: HLYPADWRFDKPKKSRSPASAEAP [F7W]
Second: HLYPADIRFDKPKKSRSPASAEAP [F7I]
The protein stability index of the first is lower: 2.09 for the first, 3.94 for the second.

Compared with HLYPADKRFDKPKKSRSPASAEAP [F7K], HLYPADRRFDKPKKSRSPASAEAP [F7R] is lower in protein stability index: 4.71 for the first, 4.22 for the second.

Compared with HLYPADTRFDKPKKSRSPASAEAP [F7T], HLYPADNRFDKPKKSRSPASAEAP [F7N] is lower in protein stability index: 4.25 for the first, 4.15 for the second.

HLYPADVRFDKPKKSRSPASAEAP [F7V] and HLYPADQRFDKPKKSRSPASAEAP [F7Q] are the same in protein stability index: 4.62 for the first, 4.62 for the second.

Compared with HLYPADPRFDKPKKSRSPASAEAP [F7P], HLYPADFRFDHPKKSRSPASAEAP [K11H] is lower in protein stability index: 4.24 for the first, 2.98 for the second.

First: HLYPADFRFDYPKKSRSPASAEAP [K11Y]
Second: HLYPADFRFDRPKKSRSPASAEAP [K11R]
The protein stability index of the first is lower: 2.44 for the first, 2.89 for the second.

Going from HLYPADFRFDWPKKSRSPASAEAP [K11W] to HLYPADFRFDEPKKSRSPASAEAP [K11E], the protein stability index rises from 2.11 to 3.01.

First: HLYPADFRFDCPKKSRSPASAEAP [K11C]
Second: HLYPADFRFDQPKKSRSPASAEAP [K11Q]
The protein stability index of the first is lower: 3.21 for the first, 3.24 for the second.

First: HLYPADFRFDFPKKSRSPASAEAP [K11F]
Second: HLYPADFRFDLPKKSRSPASAEAP [K11L]
The protein stability index of the first is higher: 2.95 for the first, 2.72 for the second.

First: HLYPADFRFDNPKKSRSPASAEAP [K11N]
Second: HLYPADFRFDIPKKSRSPASAEAP [K11I]
The protein stability index of the first is lower: 3.37 for the first, 3.56 for the second.

Compared with HLYPADFRFDSPKKSRSPASAEAP [K11S], HLYPADFRFDMPKKSRSPASAEAP [K11M] is lower in protein stability index: 3.32 for the first, 2.62 for the second.

First: HLYPADFRFDDPKKSRSPASAEAP [K11D]
Second: HLYPADFRFDPPKKSRSPASAEAP [K11P]
The protein stability index of the first is higher: 3.23 for the first, 2.87 for the second.

Going from HLYPADFRFDAPKKSRSPASAEAP [K11A] to HLYPADFRFDGPKKSRSPASAEAP [K11G], the protein stability index rises from 3.14 to 3.5.

Compared with HLYPADFRFDVPKKSRSPASAEAP [K11V], HLYPADFRFDTPKKSRSPASAEAP [K11T] is lower in protein stability index: 3.52 for the first, 3.02 for the second.

Going from HLYPADFRFDKCKKSRSPASAEAP [P12C] to HLYPADFRFDKEKKSRSPASAEAP [P12E], the protein stability index rises from 2.94 to 3.69.

First: HLYPADFRFDKDKKSRSPASAEAP [P12D]
Second: HLYPADFRFDKFKKSRSPASAEAP [P12F]
The protein stability index of the first is higher: 3.2 for the first, 3.14 for the second.

Going from HLYPADFRFDKAKKSRSPASAEAP [P12A] to HLYPADFRFVKPKKSRSPASAEAP [D10V], the protein stability index falls from 2.83 to 2.62.

Compared with HLYPADFRFTKPKKSRSPASAEAP [D10T], HLYPADFRFEKPKKSRSPASAEAP [D10E] is higher in protein stability index: 2.69 for the first, 3.08 for the second.

Compared with HLYPADFRFFKPKKSRSPASAEAP [D10F], HLYPADFRFRKPKKSRSPASAEAP [D10R] is lower in protein stability index: 2.83 for the first, 2.71 for the second.

First: HLYPADFRFCKPKKSRSPASAEAP [D10C]
Second: HLYPADFRFIKPKKSRSPASAEAP [D10I]
The protein stability index of the first is higher: 2.15 for the first, 1.87 for the second.

First: HLYPADFRFAKPKKSRSPASAEAP [D10A]
Second: HLYPADFRFPKPKKSRSPASAEAP [D10P]
The protein stability index of the first is lower: 2.16 for the first, 2.54 for the second.

Going from HLYPADFRFKKPKKSRSPASAEAP [D10K] to HLYPADFRFYKPKKSRSPASAEAP [D10Y], the protein stability index rises from 2.8 to 2.87.

Going from HLYPADFRFLKPKKSRSPASAEAP [D10L] to HLYPADFRFSKPKKSRSPASAEAP [D10S], the protein stability index rises from 3.01 to 3.22.

Going from HLYPADFRFQKPKKSRSPASAEAP [D10Q] to HLYPADFRFGKPKKSRSPASAEAP [D10G], the protein stability index rises from 2.26 to 2.85.

Going from HLYPADFRFNKPKKSRSPASAEAP [D10N] to HLYPADFRFWKPKKSRSPASAEAP [D10W], the protein stability index rises from 2.39 to 2.92.

Compared with HLYPADFRFHKPKKSRSPASAEAP [D10H], HLYPADFRFMKPKKSRSPASAEAP [D10M] is higher in protein stability index: 1.52 for the first, 2.99 for the second.
